Assay results published in article PMC5626996.

Biological target: NADH-dependent [FeFe]-hydrogenase Hyd1ABC (purified recombinant heterotrimer) (Syntrophomonas wolfei)

hydrogenase activity, Fdred → H2 (hydrogen production from reduced ferredoxin without NADH), 37°C, pH 7.5: < 0.01 U · mg^−1 | hydrogenase activity, H2 → Fdox (reduction of oxidized ferredoxin with hydrogen as the electron donor), 37°C, pH 7.5: < 0.01 U · mg^−1
B1: Clostridial ferredoxin (Clostridium pasteurianum) (natural protein)
chain: MAYKIADSCVSCGACASECPVNAISQGDSIFVIDADTCIDCGNCANVCPVGAPVQE
